Assay results from paper PMC3458707 (Chemistry & biology, 2012).
Like-named read-outs stand apart in the source and are kept apart here.

Assays:
Experiment in all cases: native MS
[1] = molecular target: T1, Recombinant firefly luciferase (firefly, UniProt P08659 1-550 = luciferase)
[2] = molecular target: T2, mitochondrial pig heart malate dehydrogenase (pig, UniProt P00346 25-338)
T2 sequence (looked up): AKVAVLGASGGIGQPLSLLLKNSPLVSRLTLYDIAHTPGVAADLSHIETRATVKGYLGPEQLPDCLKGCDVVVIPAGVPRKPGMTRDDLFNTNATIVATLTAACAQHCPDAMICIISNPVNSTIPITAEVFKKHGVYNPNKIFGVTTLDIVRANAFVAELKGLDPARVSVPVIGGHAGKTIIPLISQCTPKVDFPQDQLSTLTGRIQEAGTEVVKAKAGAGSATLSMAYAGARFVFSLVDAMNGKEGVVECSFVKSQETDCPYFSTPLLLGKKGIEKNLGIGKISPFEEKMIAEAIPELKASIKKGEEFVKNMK

[3] = molecular target: T3, pig heart citrate synthase (pig, UniProt P00889 28-464)
T3 sequence (looked up): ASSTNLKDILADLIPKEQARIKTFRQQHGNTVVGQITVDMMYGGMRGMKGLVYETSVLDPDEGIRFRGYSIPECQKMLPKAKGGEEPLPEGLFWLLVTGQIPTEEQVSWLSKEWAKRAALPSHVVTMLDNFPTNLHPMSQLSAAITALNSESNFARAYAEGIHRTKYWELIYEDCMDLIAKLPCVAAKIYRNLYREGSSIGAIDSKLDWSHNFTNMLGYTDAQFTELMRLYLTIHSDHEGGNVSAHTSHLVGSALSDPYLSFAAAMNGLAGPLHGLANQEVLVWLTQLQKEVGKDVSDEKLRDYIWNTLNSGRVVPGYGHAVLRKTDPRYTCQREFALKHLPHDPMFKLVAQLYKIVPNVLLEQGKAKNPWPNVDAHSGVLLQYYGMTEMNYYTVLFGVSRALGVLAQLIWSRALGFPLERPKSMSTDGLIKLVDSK

[4] = molecular target: T1, Recombinant firefly luciferase; remark: listed apart in the source
[5] = molecular target: T2, mitochondrial pig heart malate …; remark: listed apart in the source
[6] = molecular target: T3, pig heart citrate synthase; remark: listed apart in the source
[7] = molecular target: T1, Recombinant firefly luciferase; remark: listed apart in the source

T1 sequence (P08659 whole entry): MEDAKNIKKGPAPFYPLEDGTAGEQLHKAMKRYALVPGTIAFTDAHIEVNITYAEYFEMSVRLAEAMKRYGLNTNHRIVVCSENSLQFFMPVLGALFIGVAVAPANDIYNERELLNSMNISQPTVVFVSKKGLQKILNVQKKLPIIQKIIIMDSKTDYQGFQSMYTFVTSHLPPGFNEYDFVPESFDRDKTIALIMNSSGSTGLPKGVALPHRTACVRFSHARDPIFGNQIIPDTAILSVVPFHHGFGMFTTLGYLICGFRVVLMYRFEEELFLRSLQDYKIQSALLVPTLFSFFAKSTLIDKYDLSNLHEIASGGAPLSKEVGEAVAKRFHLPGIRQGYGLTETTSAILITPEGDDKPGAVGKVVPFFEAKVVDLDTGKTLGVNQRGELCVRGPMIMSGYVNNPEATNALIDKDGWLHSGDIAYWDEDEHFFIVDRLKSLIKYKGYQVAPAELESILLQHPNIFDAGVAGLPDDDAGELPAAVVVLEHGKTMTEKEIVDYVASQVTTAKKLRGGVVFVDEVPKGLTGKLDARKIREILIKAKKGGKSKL

B1: HSP18.1 from Pisum sativum (pea) (natural protein, UniProt P19243 1-158, looked up)
chain: MSLIPSFFSGRRSNVFDPFSLDVWDPLKDFPFSNSSPSASFPRENPAFVSTRVDWKETPEAHVFKADLPGLKKEEVKVEVEDDRVLQISGERSVEKEDKNDEWHRVERSSGKFLRRFRLPENAKMDKVKASMENGVLTVTVPKEEIKKAEVKSIEISG
[1]
  ratio of complexes [Target]1:[Target]2: 1.1 [Target]2 per [Target]1
[2]
  ratio of complexes [Target]1:[Target]2: 1.6 [Target]2 per [Target]1
[3]
  ratio of complexes [Target]1:[Target]2: 2.9 [Target]2 per [Target]1
[4]
  ratio of complexes [Target]1:[Target]2: 2.2 [Target]1 per [Target]2
[5]
  ratio of complexes [Target]1:[Target]2: 1.9 [Target]2 per [Target]1
[6]
  ratio of complexes [Target]1:[Target]2: 2 [Target]2 per [Target]1
[7]
  stoichiometry N: 19.4 ± 0.4 subunits of HSP18.1 per Luc
